In publication PMC12636746, “Structural Basis for TRF2-RAP1 Recruitment by EBNA1 at the EBV origin of replication” (Research Square, 2025):
Where a chain is given by its changes, count along the chain named.

T1: full-length Rap1 (human, UniProt Q9NYB0 1-399)
T1 construct: also called TERF2IP; source: E. coli, autoinduction medium, purified (Ni-NTA, Superdex 75); not shown: His6-SUMO, N-terminal, cleaved
T1 sequence (looked up): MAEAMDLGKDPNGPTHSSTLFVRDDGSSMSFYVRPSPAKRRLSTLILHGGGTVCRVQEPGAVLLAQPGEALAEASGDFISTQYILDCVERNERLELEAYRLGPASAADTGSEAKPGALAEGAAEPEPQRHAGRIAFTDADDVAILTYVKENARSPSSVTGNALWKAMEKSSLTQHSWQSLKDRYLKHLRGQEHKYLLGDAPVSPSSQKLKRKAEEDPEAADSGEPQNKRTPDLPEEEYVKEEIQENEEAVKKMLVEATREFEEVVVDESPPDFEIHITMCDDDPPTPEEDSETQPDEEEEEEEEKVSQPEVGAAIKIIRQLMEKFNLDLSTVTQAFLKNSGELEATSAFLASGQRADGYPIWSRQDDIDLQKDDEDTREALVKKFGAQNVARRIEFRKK

T2: full-length TRF2 (UniProt Q15554 1-542)
T2 construct: also called TERF2; source: E. coli, autoinduction medium, purified (Ni-NTA, Superdex 75); not shown: His6-SUMO, N-terminal, cleaved
T2 sequence (looked up): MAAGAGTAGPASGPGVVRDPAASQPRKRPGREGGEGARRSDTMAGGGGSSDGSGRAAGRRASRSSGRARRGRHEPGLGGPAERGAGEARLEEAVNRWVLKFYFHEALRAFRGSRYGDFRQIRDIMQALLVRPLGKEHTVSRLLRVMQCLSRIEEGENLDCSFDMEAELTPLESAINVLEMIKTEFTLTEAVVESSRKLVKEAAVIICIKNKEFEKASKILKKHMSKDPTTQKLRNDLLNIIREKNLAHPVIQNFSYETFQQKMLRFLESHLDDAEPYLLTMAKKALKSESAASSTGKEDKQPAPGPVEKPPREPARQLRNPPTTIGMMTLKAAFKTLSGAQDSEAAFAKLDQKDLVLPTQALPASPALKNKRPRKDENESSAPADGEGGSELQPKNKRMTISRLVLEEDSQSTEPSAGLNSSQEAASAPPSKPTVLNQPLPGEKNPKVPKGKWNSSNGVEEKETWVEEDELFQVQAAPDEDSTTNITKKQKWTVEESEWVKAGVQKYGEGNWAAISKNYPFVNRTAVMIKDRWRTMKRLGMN

T3: EBNA1Δ90–325 3x (E495A D499A E500A) (Epstein-Barr virus, UniProt P03211 1-641, Δ90–325 | E495A | D499A | E500A)
T3 construct: also called 3x mutant EBNA1; source: E. coli, autoinduction medium, purified (Ni-NTA, Superdex 75); not shown: His6-SUMO, N-terminal, cleaved
T3 sequence: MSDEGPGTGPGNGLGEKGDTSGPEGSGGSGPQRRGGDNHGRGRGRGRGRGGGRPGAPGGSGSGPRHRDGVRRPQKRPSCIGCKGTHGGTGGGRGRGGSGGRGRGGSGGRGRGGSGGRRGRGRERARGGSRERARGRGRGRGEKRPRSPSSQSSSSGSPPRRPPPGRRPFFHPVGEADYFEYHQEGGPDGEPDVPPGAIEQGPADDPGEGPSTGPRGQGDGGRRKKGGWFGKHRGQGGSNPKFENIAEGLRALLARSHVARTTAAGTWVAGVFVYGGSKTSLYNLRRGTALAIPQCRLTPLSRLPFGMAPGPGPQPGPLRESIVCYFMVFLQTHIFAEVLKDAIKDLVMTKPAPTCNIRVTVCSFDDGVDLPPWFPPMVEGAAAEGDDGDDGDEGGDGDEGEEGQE

B1: EBNA1 DNA binding domain (DBD) aa 401–607 (domain or fragment)
chain: GRRPFFHPVGEADYFEYHQEGGPDGEPDVPPGAIEQGPADDPGEGPSTGPRGQGDGGRRKKGGWFGKHRGQGGSNPKFENIAEGLRALLARSHVERTTDEGTWVAGVFVYGGSKTSLYNLRRGTALAIPQCRLTPLSRLPFGMAPGPGPQPGPLRESIVCYFMVFLQTHIFAEVLKDAIKDLVMTKPAPTCNIRVTVCSFDDGVDLP
notes: also called EBNA1 DBD; EBNA1(401–607); source: E. coli, autoinduction medium, purified (Ni-NTA, Superdex 75); not shown: His6-SUMO, N-terminal, cleaved
B2: TRF2 homodimerization domain (TRFH), residues 85–287 of TRF2 (domain or fragment, UniProt Q15554 85-287, looked up)
chain: AGEARLEEAVNRWVLKFYFHEALRAFRGSRYGDFRQIRDIMQALLVRPLGKEHTVSRLLRVMQCLSRIEEGENLDCSFDMEAELTPLESAINVLEMIKTEFTLTEAVVESSRKLVKEAAVIICIKNKEFEKASKILKKHMSKDPTTQKLRNDLLNIIREKNLAHPVIQNFSYETFQQKMLRFLESHLDDAEPYLLTMAKKALK
notes: also called TRFH domain; TRF2 dimerization domain; source: E. coli (all constructs), purified
B3: pre-assembled full length TRF2/Rap1 complex (complex)
chain 1: T2 sequence (looked up)
chain 2: T1 sequence (looked up)
notes: source: E. coli, each protein purified; complex pre-assembled and purified by glycerol gradient; not shown: His6-SUMO, N-terminal, cleaved
B4: EBNA1 459–607 (domain or fragment)
chain: RKKGGWFGKHRGQGGSNPKFENIAEGLRALLARSHVERTTDEGTWVAGVFVYGGSKTSLYNLRRGTALAIPQCRLTPLSRLPFGMAPGPGPQPGPLRESIVCYFMVFLQTHIFAEVLKDAIKDLVMTKPAPTCNIRVTVCSFDDGVDLP
notes: also called shorter EBNA1 459–607; core structured DBD; source: E. coli (all constructs), purified
B5: EBNA1ΔGA (Δ90–325), wild type (natural protein)
chain: T3 sequence with A259E, A263D, A264E
notes: also called WT EBNA1; "full-length" EBNA1; source: E. coli, autoinduction medium, purified (Ni-NTA, Superdex 75); not shown: His6-SUMO, N-terminal, cleaved

Columns and labels:
Settings in all cases: both partners purified
full-length Rap1 = molecular target: T1, full-length Rap1; assay: native gel or EMSA; EBNA1 DBD pre-formed on the 60 bp ½DS DNA probe (5 nM, IRD700), TRF2 and then Rap1 added; 10 mM HEPES pH 7.5, 300 mM KCl, 5 mM MgCl2, 1 mM ZnCl2, 5 mM BME, 0.05% NP-40, 5% glycerol; 1.4% agarose gel
full-length TRF2 = molecular target: T2, full-length TRF2; assay: as above
[1] = molecular target: B1; assay: native gel or EMSA; TRFH domain added to the ½DS-EBNA1 complex; binding buffer lowered to 100 mM KCl, highest TRFH 10 μM (1000-fold excess); under standard conditions only a weak supershift
[2] = molecular target: T3, EBNA1Δ90–325 3x (E495A D499A E500A); assay: native gel or EMSA; pre-assembled TRF2-Rap1 complex (glycerol gradient) serially diluted onto pre-assembled ½DS-EBNA1 complex (10X stock 200 nM EBNA1, 50 nM ½DS DNA); binding buffer with 300 mM KCl; 1.4% agarose gel
[3] = molecular target: B2; assay: native gel or EMSA; TRFH domain added to the ½DS-EBNA1 complex; binding buffer lowered to 100 mM KCl, highest TRFH 10 μM (1000-fold excess); under standard conditions only a weak supershift
[4] = molecular target: B3; assay: native gel or EMSA; pre-assembled TRF2-Rap1 complex (glycerol gradient) serially diluted onto pre-assembled ½DS-EBNA1 complex (10X stock 200 nM EBNA1, 50 nM ½DS DNA); binding buffer with 300 mM KCl; 1.4% agarose gel

Binder: B1
- binding result (full-length Rap1): binds
- binding result (full-length TRF2): binds

Binder: B2
- binding result [1]: binds

Binder: B3
- fold weaker than with WT EBNA1 [2]: ~2 fold

Binder: B4
- binding result [3]: binds

Binder: B5
- binding result [4]: binds
